Experiment [1] addresses T1, Human STAT3 Protein (recombinant) (human, UniProt P40763 1-770).
T1 construct: also called recombinant STAT3
In words: SPR, Biacore 3000.

The target in experiment [2] is STAT3 (endogenous, in human cells and from lysed cancer cell lines) (human, UniProt P40763 2-770). In words: cell-based or functional assay.

Values joined by “and” are separate entries in the source; they are usually repeats but may differ in a detail not shown here. Identical values can stand only once.

B1: Anti-KRAS VHH (SBT-102 (SEQ ID NO: 2)) (VHH)
VHH: EVQLVESGGGSVQTGGSLRLSCAVSGNIGSSYCMGWFRQAPGKKREAVARIVRDGATGYADYVKGRFTISRDSAKNTLYLQMNRLIPEDTAIYYCAADLPPGCLTQAIWNFGYRGQGTLVTVSS
Regarding B1, the binding result in experiment [1] is reported as “no binding”.

B2: Anti-KRAS/Anti-STAT3 VHH (SBT-100 (SEQ ID NO: 1)) (VHH)
VHH: HVQLVESGGGSVQAGGSLRLSCAASGANGGRSCMGWFRQVPGKEREGVSGISTGGLITYYADSVKGRFTISQDNTKNTLYLQMNSLKPEDTAMYYCATSRFDCYRGSWFNRYMYNSWGQGTQVTVSS
As to B2, in experiment [2], the “IC50, STAT3 luciferase reporter assay in HEK 293 cells after IL-6 stimulation” value is 2.68 µg/mL and 0.18 µM.

(Values after patent US20240101652A1 (SINGH BIOTECHNOLOGY, published 2024).)
